The text below walks through data of article PMC5026585 (ACS chemical biology, 2016).

Where a SMILES comes first, the peptide text is derived from it. [ ]: non-standard residue; d: D form. The star is where a group is joined. Benzoyl(4-tBu) = CC(C)(C)c1ccc(C(=O)*)cc1; Lys(Et2) = CCN(CC)CCCC[C@H](N)C(=O)O

One assay concerns CDYL chromodomains. The assay can be described thus: selectivity profile of UNC3866, CDYL chromodomains. Type of assay: binding. The conditions noted are these: reduced potency relative to CBX7 and CBX4.
Assay [1] concerns the target PRC1 chromodomains (CBX2, -4, -6, -7, and -8). The conditions noted are these: cited from earlier work.
The next assay concerns chromodomain of MPP8. Kind of assay: selectivity profile of UNC3866, MPP8. The class given is binding. The settings on record: reduced potency relative to CBX7 and CBX4.
The target in assay [2] is CBX7 chromodomain (chromobox protein homolog 7). Kind of assay: fluorescence polarisation. A general note: Fluorescence polarisation rises when a labelled molecule tumbles more slowly, as on binding a larger partner.
The target of assay [3] is CBX8 chromodomain (chromobox protein homolog 8). The assay can be described thus: fluorescence polarisation.
In assay [4] the target is CDY1 chromodomain (Testis-specific chromodomain protein Y 1). The assay can be described thus: fluorescence polarisation.
Assay [5] addresses CDYL chromodomain (Chromodomain Y-like protein). Kind of assay: fluorescence polarisation.
The target in assay [6] is CDYL2 chromodomain (Chromodomain Y-like protein 2). The assay can be described thus: fluorescence polarisation.
The target in assay [7] is MPP8 chromodomain (M-phase phosphoprotein 8). The assay can be described thus: fluorescence polarisation.

Usually Kd stands for the constant that tells how readily two partners part at equilibrium. For `CCN(CC)CCCC[C@H](NC(=O)[C@H](CC(C)C)NC(=O)[C@H](C)NC(=O)[C@H](Cc1ccccc1)NC(=O)c1ccc(C(C)(C)C)cc1)C(=O)N[C@@H](CO)C(=O)OC` [UNC3866] ({Benzoyl(4-tBu)}-FAL[Lys(Et2)]S-OMe), in the assay with CDYL chromodomains, the “selectivity, CDYL chromodomains relative to CBX7 and CBX4” value was about 8 fold. For the same compound, the Kd in assay [1] was about 0.1 µM. Moreover, the “selectivity, MPP8 relative to CBX7 and CBX4” value in the assay on chromodomain of MPP8 is about 30 fold.

Consider UNC3866-FAM (peptide), for which the equilibrium dissociation constant (Kd) came out at 0.093 µM in assay [2]; 0.666 µM in assay [3]; 6.41 µM in assay [4]; 1.01 µM in assay [5]; 0.71 µM in assay [6]; 4.79 µM in assay [7].
